Data as given in patent US20190100587A1 (COVAGEN, published 2019).
Like-named read-outs stand apart in the source and are kept apart here.

T1: His-tagged human FcγRIIB (R&D, carrier-free formulation) (human, UniProt P31994 46-217, limits assumed)
T1 construct: also called CD32B
T1 sequence (looked up): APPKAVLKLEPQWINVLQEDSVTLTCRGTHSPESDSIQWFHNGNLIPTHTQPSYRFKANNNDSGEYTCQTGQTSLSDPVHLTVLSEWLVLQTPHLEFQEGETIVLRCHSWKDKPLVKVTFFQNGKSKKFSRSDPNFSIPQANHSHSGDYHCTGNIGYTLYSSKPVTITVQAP

B1: mAb2 G1 C-LC DANAPA IgG1 (bispecific antibody)
heavy: EVQLVESGGGLVQPGGSLKLSCAASGFTFNTYAMNWVRQAPGKGLEWVARIRSKYNNYATYYADSVKDRFTISRDDSKNTAYLQMNSLKTEDTAVYYCVRHGNFGDSYVSWFAYWGQGTLVTVSSASTKGPSVFPLAPSSKSTSGGTAALGCLVKDYFPEPVTVSWNSGALTSGVHTFPAVLQSSGLYSLSSVVTVPSSSLGTQTYICNVNHKPSNTKVDKKVEPKSCDKTHTCPPCPAPELLGGPSVFLFPPKPKDTLMISRTPEVTCVVVAVSHEDPEVKFNWYVDGVEVHNAKTKPREEQYASTYRVVSVLTVLHQDWLNGKEYKCKVSNKALAAPIEKTISKAKGQPREPQVYTLPPSREEMTKNQVSLTCLVKGFYPSDIAVEWESNGQPENNYKTTPPVLDSDGSFFLYSKLTVDKSRWQQGNVFSCSVMHEALHNHYTQKSLSLSPGK
light: not shown
notes: also called CD3/CD33 bispecific FynomAb with Fynomer G1; FynomAb with the DANAPA IgG Fc
B2: mAb2 DANAPA IgG1 (antibody)
heavy: EVQLVESGGGLVQPGGSLKLSCAASGFTFNTYAMNWVRQAPGKGLEWVARIRSKYNNYATYYADSVKDRFTISRDDSKNTAYLQMNSLKTEDTAVYYCVRHGNFGDSYVSWFAYWGQGTLVTVSSASTKGPSVFPLAPSSKSTSGGTAALGCLVKDYFPEPVTVSWNSGALTSGVHTFPAVLQSSGLYSLSSVVTVPSSSLGTQTYICNVNHKPSNTKVDKKVEPKSCDKTHTCPPCPAPELLGGPSVFLFPPKPKDTLMISRTPEVTCVVVAVSHEDPEVKFNWYVDGVEVHNAKTKPREEQYASTYRVVSVLTVLHQDWLNGKEYKCKVSNKALAAPIEKTISKAKGQPREPQVYTLPPSREEMTKNQVSLTCLVKGFYPSDIAVEWESNGQPENNYKTTPPVLDSDGSFFLYSKLTVDKSRWQQGNVFSCSVMHEALHNHYTQKSLSLSPGK
light: QTVVTQEPSLTVSPGGTVTLTCRSSTGAVTTSNYANWVQQKPGQAPRGLIGGTNKRAPGTPARFSGSLLGGKAALTLSGVQPEDEAEYYCALWYSNLWVFGGGTKLTVLGQPKAAPSVTLFPPSSEELQANKATLVCLISDFYPGAVTVAWKADSSPVKAGVETTTPSKQSNNKYAASSYLSLTPEQWKSHRSYSCQVTHEGSTVEKTVAPTECS
notes: Humanized anti-CD3 antibody in DANAPA IgG1 format; also called anti-CD3 antibody mAb2; CD3-specific antibody mAb2
B3: mAb1 DAPA IgG1 (antibody)
heavy: not shown
light: QVVLTQSPAIMSAFPGEKVTMTCSASSSVSYMNWYQQKSGTSPKRWIYDSSKLASGVPARFSGSGSGTSYSLTISSMETEDAATYYCQQWSRNPPTFGGGTKLQITRTVAAPSVFIFPPSDEQLKSGTASVVCLLNNFYPREAKVQWKVDNALQSGNSQESVTEQDSKDSTYSLSSTLTLSKADYEKHKVYACEVTHQGLSSPVTKSFNRGEC
B4: mAb1 DNNDPG IgG1 (antibody)
heavy: QVQLQQSGAELARPGASVKMSCKASGYTFTRSTMHWVKQRPGQGLEWIGYINPSSAYTNYNQKFKDKATLTADKSSSTAYMQLSSLTSEDSAVYYCASPQVHYDYNGFPYWGQGTLVTVSAASTKGPSVFPLAPSSKSTSGGTAALGCLVKDYFPEPVTVSWNSGALTSGVHTFPAVLQSSGLYSLSSVVTVPSSSLGTQTYICNVNHKPSNTKVDKKVEPKSCDKTHTCPPCPAPELLGGPSVFLFPPKPKDTLMISRTPEVTCVVVNVSHEDPEVKFNWYVDGVEVHNAKTKPREEQYDSTYRVVSVLTVLHQDWLNGKEYKCKVSNKALGAPIEKTISKAKGQPREPQVYTLPPSREEMTKNQVSLTCLVKGFYPSDIAVEWESNGQPENNYKTTPPVLDSDGSFFLYSKLTVDKSRWQQGNVFSCSVMHEALHNHYTQKSLSLSPGK
light: QVVLTQSPAIMSAFPGEKVTMTCSASSSVSYMNWYQQKSGTSPKRWIYDSSKLASGVPARFSGSGSGTSYSLTISSMETEDAATYYCQQWSRNPPTFGGGTKLQITRTVAAPSVFIFPPSDEQLKSGTASVVCLLNNFYPREAKVQWKVDNALQSGNSQESVTEQDSKDSTYSLSSTLTLSKADYEKHKVYACEVTHQGLSSPVTKSFNRGEC
notes: mAb1 with D265N, N297D, P329G (EU numbering)
B5: mAb1 DENQPS IgG1 (antibody)
heavy: QVQLQQSGAELARPGASVKMSCKASGYTFTRSTMHWVKQRPGQGLEWIGYINPSSAYTNYNQKFKDKATLTADKSSSTAYMQLSSLTSEDSAVYYCASPQVHYDYNGFPYWGQGTLVTVSAASTKGPSVFPLAPSSKSTSGGTAALGCLVKDYFPEPVTVSWNSGALTSGVHTFPAVLQSSGLYSLSSVVTVPSSSLGTQTYICNVNHKPSNTKVDKKVEPKSCDKTHTCPPCPAPELLGGPSVFLFPPKPKDTLMISRTPEVTCVVVEVSHEDPEVKFNWYVDGVEVHNAKTKPREEQYQSTYRVVSVLTVLHQDWLNGKEYKCKVSNKALSAPIEKTISKAKGQPREPQVYTLPPSREEMTKNQVSLTCLVKGFYPSDIAVEWESNGQPENNYKTTPPVLDSDGSFFLYSKLTVDKSRWQQGNVFSCSVMHEALHNHYTQKSLSLSPGK
light: QVVLTQSPAIMSAFPGEKVTMTCSASSSVSYMNWYQQKSGTSPKRWIYDSSKLASGVPARFSGSGSGTSYSLTISSMETEDAATYYCQQWSRNPPTFGGGTKLQITRTVAAPSVFIFPPSDEQLKSGTASVVCLLNNFYPREAKVQWKVDNALQSGNSQESVTEQDSKDSTYSLSSTLTLSKADYEKHKVYACEVTHQGLSSPVTKSFNRGEC
notes: mAb1 with D265E, N297Q, P329S (EU numbering)
B6: mAb1 N297A IgG1 (antibody)
heavy: not shown
light: QVVLTQSPAIMSAFPGEKVTMTCSASSSVSYMNWYQQKSGTSPKRWIYDSSKLASGVPARFSGSGSGTSYSLTISSMETEDAATYYCQQWSRNPPTFGGGTKLQITRTVAAPSVFIFPPSDEQLKSGTASVVCLLNNFYPREAKVQWKVDNALQSGNSQESVTEQDSKDSTYSLSSTLTLSKADYEKHKVYACEVTHQGLSSPVTKSFNRGEC
notes: mAb1 with Fc mutation N297A (EU numbering)
B7: mAb1 LALA IgG1 (antibody)
heavy: not shown
light: QVVLTQSPAIMSAFPGEKVTMTCSASSSVSYMNWYQQKSGTSPKRWIYDSSKLASGVPARFSGSGSGTSYSLTISSMETEDAATYYCQQWSRNPPTFGGGTKLQITRTVAAPSVFIFPPSDEQLKSGTASVVCLLNNFYPREAKVQWKVDNALQSGNSQESVTEQDSKDSTYSLSSTLTLSKADYEKHKVYACEVTHQGLSSPVTKSFNRGEC
notes: mAb1 with Fc mutations L234A, L235A (EU numbering)
B8: Anti-PD1 mAb DANAPA IgG1 (antibody)
heavy: QVQLQQSGAELVKPGASVKMSCKAFGYTFTTYPIEWMKQNHGKSLEWIGNFHPYNDDTKYNEKFKGKAKLTVEKSSTTVYLELSRLTSDDSAVYYCARENYGSHGGFVYWGQGTLVTVSAASTKGPSVFPLAPSSKSTSGGTAALGCLVKDYFPEPVTVSWNSGALTSGVHTFPAVLQSSGLYSLSSVVTVPSSSLGTQTYICNVNHKPSNTKVDKKVEPKSCDKTHTCPPCPAPELLGGPSVFLFPPKPKDTLMISRTPEVTCVVVAVSHEDPEVKFNWYVDGVEVHNAKTKPREEQYASTYRVVSVLTVLHQDWLNGKEYKCKVSNKALAAPIEKTISKAKGQPREPQVYTLPPSREEMTKNQVSLTCLVKGFYPSDIAVEWESNGQPENNYKTTPPVLDSDGSFFLYSKLTVDKSRWQQGNVFSCSVMHEALHNHYTQKSLSLSPGK
light: ENVLTQSPAIMSASPGEKVTMTCRASSSVISSYLHWYQQKSGASPKLWIYSTSNLASGVPDRFSGSGSGTSYSLTISSVEAEDAATYYCQQYNGYPLTFGAGTKLEIKRTVAAPSVFIFPPSDEQLKSGTASVVCLLNNFYPREAKVQWKVDNALQSGNSQESVTEQDSKDSTYSLSSTLTLSKADYEKHKVYACEVTHQGLSSPVTKSFNRGEC
notes: DANAPA IgG1 format; also called anti-PD1 antibody; PD-1 specific antibody

Legend:
[1] = molecular target: T2, His-tagged human FcγRI (R&D, carrier-free formulation) (human, UniProt P12314 16-288); assay: AlphaScreen competition on His-tagged FcγRI; competitor biotinylated B21M LALA IgG1
T2 construct: also called CD64; human FcγR1

[2] = molecular target: T2, His-tagged human FcγRI (R&D, …); assay: as above; remark: listed apart in the source
[3] = molecular target: T3, human CD3 on CD3+ Jurkat cells (human); assay: flow cytometry on CD3+ Jurkat cells, bound antibody detected with anti-human IgG-Alexa488
T3 construct: whole, on cells

[4] = molecular target: T4, human recombinant FcγRI (Sino Biological) (human, UniProt P12314 16-288, limits assumed); assay: SPR (BIAcore), FcγRI on chip, 1:1 Langmuir model
T4 construct: Amine-coupled to a BIAcore CM5 chip (1500 RU); also called CD64

[5] = molecular target: T4, human recombinant FcγRI (Sino …); assay: SPR (BIAcore), FcγRI on chip, steady-state model
[6] = molecular target: T5, human recombinant FcγRIIIA (158F; R&D Systems) (human, UniProt P08637 17-208); assay: SPR (BIAcore), human FcγRIIIA (158F) amine-coupled on a CM5 chip, antibody injected
T5 construct: Amine-coupled to a BIAcore CM5 chip (1400 RU); also called CD16A

[7] = molecular target: T4, human recombinant FcγRI (Sino …); assay: SPR (BIAcore), FcγRI on chip, kinetic (koff/kon)
[8] = molecular target: T2, His-tagged human FcγRI (R&D, …); assay: AlphaScreen competition on His-tagged FcγRI
[9] = molecular target: T2, His-tagged human FcγRI (R&D, …); assay: AlphaScreen competition assay; titrated antibody competes with biotinylated B21M LALA IgG1 for His-tagged human FcγRI
[10] = molecular target: T5, human recombinant FcγRIIIA (158F; R&D …); assay: SPR (BIAcore), FcγRIIIA 158F on chip, 1:1 Langmuir model
[11] = molecular target: T1, His-tagged human FcγRIIB (R&D, …); assay: AlphaScreen competition assay; titrated antibody competes with biotinylated B21M IgG1 for His-tagged human FcγRIIB
[12] = molecular target: T5, human recombinant FcγRIIIA (158F; R&D …); assay: SPR (BIAcore), FcγRIIIA 158F on chip, kinetic (koff/kon)
[13] = molecular target: T5, human recombinant FcγRIIIA (158F; R&D …); assay: SPR (BIAcore), FcγRIIIA 158F on chip, steady-state model

| Binder | IC50 [1] [nM] | IC50 [2] [nM] | IC50 relative to IgG1 [2] [fold] | EC50 (read off the curve) [3] [nM] | Kd [5] [nM] | fold stronger binding than mAb1 DANAPA IgG1 [8] [fold] | further results |
| --- | --- | --- | --- | --- | --- | --- | --- |
| B1 | 206 |  |  |  |  |  |  |
| B2 | ≥ 600 |  |  |  |  |  |  |
| B3 |  | 17.7 | 7.8 | ~0.1 | 1190 | > 37 | koff [4]: 0.0595 s⁻¹; kon [4]: 103000 M⁻¹ s⁻¹; binding result [6]: no binding (tested: 2000 nM); Kd [7]: 575 nM |
| B4 |  |  |  |  |  |  | binding result [9]: binds |
| B5 |  |  |  |  |  |  | binding result [9]: binds |
| B6 |  | 23.9 | 10.5 | ~0.1 | 1510 | > 37 | koff [4]: 0.112 s⁻¹; kon [4]: 152000 M⁻¹ s⁻¹; binding result [6]: no binding (tested: 2000 nM); Kd [7]: 737 nM |
| B7 |  | 27.1 | 11.9 | ~0.1 | 1550 | > 37 | koff [10]: 0.111 s⁻¹; kon [10]: 14200 M⁻¹ s⁻¹; binding result [11]: binds; Kd [12]: 7780 nM; Kd [13]: 13800 nM |
| B8 | ≥ 600 |  |  |  |  |  |  |
